From publication PMC10442823

Experiments:
[1] = target: His-tagged human FcγRIIIa (V158 allotype), extracellular domain (amino acids 17-208) (human) (UniProt P08637); experiment: SPR
[2] = target: His-tagged human FcγRIIIa (F158 allotype), extracellular domain (amino acids 17-208) (human) (UniProt P08637); experiment: SPR
[3] = target: His-tagged human FcγRIIIa (V158 allotype), extracellular domain (amino acids 17-208) (human) (UniProt P08637); experiment: SPR; Biacore T200; His-tagged FcγRIIIa captured (40 RU) by anti-His antibody on a CM5 chip; Rituxan flowed over, HEPES-EP running buffer; KD from steady state; three independent runs

Substance | Kd [1] [nM] | Kd [2] [nM] | Kd [3] [nM]
mammalian cell produced rituximab (Rituxan) | 262 | – | –
rituximab (Rx), plant-produced, co-expressed with LmSTT3D | 12 | 54.4 | –

More lines, now with the values ahead:

Kd [1] [nM] | Kd [2] [nM] | Kd [3] [nM] | Substance
13 | 50.1 | – | rituximab (Rx), plant-produced, co-expressed with LdOST
18 | 66.6 | – | rituximab (Rx), plant-produced, expressed alone
– | – | 263 | mammalian cell produced rituximab (Rituxan) (antibody)
